Measured values published in the supplement of paper PMC9170038.

How the values were obtained:
MS2 coat protein [1] = experiment: apparent KD of MS2 coat protein, switch ON state; designed switch direction (-1 OFF switch, 1 ON switch): -1; higher = weaker reporter binding; settings: FMN input: 0 or 200 uM; Eterna round: R93 (includes R88 designs)
Summary of the method: (§1)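 Values are apparent KD, taken as the median for each design of fits to normalised binding curves from individual clusters. The designed RNA switches were transcribed on-chip from Illumina sequencing clusters and exposed to SNAP-549-labelled MS2 coat protein at twofold increasing amounts from 0.7 or 1.5 nM to 3 µM. Titration used 100 mM Tris-HCl pH 7.5, 80 mM KCl and 4 mM MgCl2, without or with constant ligand.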

MS2 coat protein [2] = experiment: apparent KD of MS2 coat protein, switch OFF state (with FMN for OFF switches, without FMN for ON switches); designed switch direction (-1 OFF switch, 1 ON switch): -1; higher = weaker reporter binding; settings: FMN input: 0 or 200 uM; Eterna round: R93 (includes R88 designs)
Summary of the method: as §1

MS2 coat protein [3] = experiment: apparent KD of MS2 coat protein; designed switch direction (-1 OFF switch, 1 ON switch): 1; higher = weaker reporter binding
Summary of the method: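 Designed RNA switches with common flanks were made on Illumina chips by stalled E. coli RNA polymerase. Titration with SNAP-549-labelled MS2 coat protein doubled from 0.7 or 1.5 nM up to 3 µM. Apparent KD is each design's median over clusters after curve-fitting normalised fluorescence.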

[4] = input ligand: microRNA oligo, concentration not stated
[5] = Eterna round: R95, input ligand: FMN 200 uM
[6] = Eterna round: R95, input ligand: microRNA oligo, concentration not stated
[7] = Eterna round: R95, input ligand: none

Row | Sequence | apparent KD of MS2 coat protein (MS2 coat protein [1]) [nM] | apparent KD of MS2 coat protein (MS2 coat protein [2]) [nM] | other results
1 | AAAAAAAAAGGAUAUAAAAAAAAAAGUCAGGAUAUAGGAAACUAGAAGGGACAUGAGGAUCACCCAUGUAAAAA [Meechl Ex4 R2 m0] | 63.5 | 40.8 | 
2 | AAAAAACAUGAGGAUCACCCAUGUAAGGAUAUGCAAGCAAGAAGAAAGAACAGAAAAAGCAGAAGGUACAAAAA [Amethyst 72] | 25.3 | 35.9 | 
3 | AAAAAACAUGAGGAUCACCCAUGUAAGGAUAUGCUAGGAAAAAGAAAAAUAAAAACUAGCAGAAGGUACAUAAA [JL wbt mod 10] | 25.3 | 30.6 | 
4 | AAAAAACAUGAGGAUCACCCAUGUAAGGAUAUGCUGAAAAAAACCUGGAAAACAGGCAGCAGAAGGUACAAAAA [66%, Wbt, 36] | 23.9 | 35.6 | 
5 | AAAAAACAUGAGGAUCACCCAUGUAAGGAUAUGUAAAAUAAAAGAAAAAUAAAGAAAAGCAGAAGGUAUAUGAA [JL wbt mod 13] | 27.6 | 40.7 | 
6 | AAAAAACAUGAGGAUCACCCAUGUCAGGAUAUCCGGUUCUUGAAAAAAAAGAGGCGUUGGAGAAGGGACAUUCC [Chica Displaced 13 - Jieux - Exclusion 1] | 25 | 38.7 | 
7 | AAAAAACAUGAGGAUCACCCAUGUCAGGAUAUCGAAAGAAAAAAAAAGAAAAAAAAAACGAGAAGGGACAAAAA [Amethyst 28] | 56.1 | 30.3 | 
8 | AAAAAACAUGAGGAUCACCCAUGUCAGGAUAUGCGAAGCAAAAAAAAAAAAAAGCGAAGCAGAAGGGACUAAAA [Exclusion1 Malc#5] | 38.2 | 32.9 | 
9 | AAAAAACAUGAGGAUCACCCAUGUGAGGAUAUACUAAACAAAAAAAACAAAAACAAAUGUAGAAGGCACAAAAA [Amethyst 36] | 19 | 23 | 
10 | AAAAAACAUGAGGAUCACCCAUGUGAGGAUAUCGAAAAGUCAAAGAAAAAGACGAAAACGAGAAGGCACAAAAA [Mat - Mod of Eli 2] | 28.1 | 43.6 | 
11 | AAAAAACAUGAGGAUCACCCAUGUGAGGAUAUCGAUAUUAAAGACACCCACUUAAUGGCGAGAAGGCGCAAAAA [Brourd 613 Mod 20 - Jieux - Exclusion 1] | 25.4 | 26.5 | 
12 | AAAAAACAUGAGGAUCACCCAUGUGAGGAUAUCGCUAGUGAGGCCAUAGUGUCAGUGAUGAGAAGGCACAUAAA [Brourd 613 Mod 9 - Jieux - Exclusion 1] | 37.7 | 30.8 | 
13 | AAAAAACAUGAGGAUCACCCAUGUGAGGAUAUCUGUAUCCAAAAGGAAGUGUAGGAUCGGAGAAGGCACUAGGA [Banishment 1 - Jieux - Exclusion 1] | 36.5 | 52.3 | 
14 | AAAAAACAUGAGGAUCACCCAUGUGAGGAUAUCUGUAUUCAAUCCUCGGAUUGAAUACAGAGAAGGCACAUGGG [Ex1: 609] | 13.9 | 14.2 | 
15 | AAAAAACAUGAGGAUCACCCAUGUGAGGAUAUGAACGAAAUAAAAUAAAAAUAAAAGUUCAGAAGGCACAAAAA [Mat - Exclusion 1 - Eli mod - D11] | 33.2 | 44.7 | 
16 | AAAAAACAUGAGGAUCACCCAUGUGAGGAUAUGCAAAAGAAAAGAAAAGAAAGAAGAAGCAGAAGGUACAAGAA [Shepseskare Isi] | 22.6 | 27.7 | 
17 | AAAAAACAUGAGGAUCACCCAUGUGAGGAUAUGCUAUGGAAAAUAAAAAUAAAACAUAGCAGAAGGCACAAUGU [Denovo 5] | 50.9 | 85.2 | 
18 | AAAAAACAUGAGGAUCACCCAUGUGAGGAUAUGCUGCGAAUAAAGAAAGAAGAAAGCAGCAGAAGGCACACCAA [Amethyst 77] | 26.5 | 45.6 | 

Row | Sequence | apparent KD of MS2 coat protein (MS2 coat protein [1]) [nM] | apparent KD of MS2 coat protein (MS2 coat protein [2]) [nM] | other results
19 | AAAAAACAUGAGGAUCACCCAUGUGAGGAUAUGUAUAUCCCUAAAAAAGUGUGGGACUACAGAAGGCACUUGGA [Atanri] | 43.3 | 122 | 
20 | AAAAACAUAGGAUAUACAUGAGGAUCACCCAUGUUAAAAUAAAGAAAGGGAGAAAUAAGUAGAAGGAUGAAAAA [Meechl Ex3 3] | 26.5 | 31.2 | 
21 | AAAAACCGAGGAUAUACAUGAGGAUCACCCAUGUGAAAAAAAAAAAAGAGGAAAAGAUGUAGAAGGCGGAAAAA [65%, Moding Exclusion3-cac2, 17] | 33.9 | 44.1 | 
22 | AAAAAGACAGGAUAUACGUGAAAAAUAAAAAUGUAAAAAAAACAUGAGGAUCACCCAUGUAGAAGGGUCAAAAA [Ecx-I 62% 3] | 59.3 | 61.8 | 
23 | AAAAAGAUAGGAUAUACGUACAUGUCAAAAGACGUGAAGGGACAUGAGGAUCACCCAUGUAGAAGGGUUAAAAA [JL Wide Open 41] | 285 | 45.3 | 
24 | AAAAAGGCAGGAUAUACGUACAUGUCAAAAGACGUGAAGGGACAUGAGGAUCACCCAUGUAGAAGGGUCAAGAA [JL Stem Breaker 19] | 128 | 61.9 | 
25 | AAAAAGGGAGGAUAUACAUGAGGAUCACCCAUGUGAAAGACGAAAAAGAGUCUAAAAAGUAGAAGGCCCAAAAA [65%, Moding Exclusion3-cac2, 9] | 33.5 | 43 | 
26 | AAAAAGGGAGGAUAUACAUGAGUAGAUCGUGUAAAAAAAAUACAUGAGGAUCACCCAUGUAGAAGGCCCAAAAA [Ecxl-III] | 96.8 | 31.5 | 
27 | AAAAAGGGAGGAUAUGCAAAAAAAAAAAAAAAAAAAAAAAAACAUGAGGAUCACCCAUGUAGAAGGCCCAAAAA [Dora Baggins - Jieux - Exclusion 2] | 32.4 | 34.4 | 
28 | AAAAAGGUAGGAUAUACGAAAAAAAAAGGUGAAAAAAAAAAACAUGAGGAUCACCCAUGUAGAAGGACCAAAAA [Ex 2 sub 1 70% 2] | 39.3 | 76.7 | 
29 | AAAAAGGUAGGAUAUACGAAAAAAAAGGGUAGAAAAAUAAAACAUGAGGAUCACCCAUGUAGAAGGACCAAAAA [Ex 2 sub 1 70% 1] | 25.8 | 86.5 | 
30 | AAAAAGGUAGGAUAUGCUAAAUAACAUGAAGAAUAAAUAAAACAUGAGGAUCACCCAUGUAGAAGGACCAAAAA [Ex 2 Tesla 1] | 25 | 20 | 
31 | UUUAGAGGCGCAGGAUAUGGUGAGGAUCACCCACUAGAAGGGUGCACAUGAGAAUCGGACAUGAGGAUCACCCAUGUUUGGCGC (Eterna round: R96, puzzle: Same State NG 1) |  |  | apparent KD of MS2 coat protein (MS2 coat protein [3]; input ligand: FMN 200 uM): 806 nM; apparent KD of MS2 coat protein (MS2 coat protein [3]; [4]): 554 nM; apparent KD of MS2 coat protein (MS2 coat protein [3]; input ligand: none): 816 nM
32 | UUUAGUUGCGCGCAGGAUAUGUAUUAAUAUACAUGAGGAUCACCCAUGUGAGAUCGAAUAGAUCUACAGAAGGGCGAAUCGCGAC [Laonerce - 26] (puzzle: Same State 2) |  |  | apparent KD of MS2 coat protein (MS2 coat protein [3]; [5]): 32.9 nM; apparent KD of MS2 coat protein (MS2 coat protein [3]; [6]): 168 nM; apparent KD of MS2 coat protein (MS2 coat protein [3]; [7]): 611 nM
33 | UUUAGUUGCGGGCAGGAUAUGUAUUAAAAUACAUGAGGAUCACCCAUGUGCGGGUAUAACACCCGACAGAAGGGCCAAUCGCGAC [Laonerce] (Eterna round: R96, puzzle: Same State 2) |  |  | apparent KD of MS2 coat protein (MS2 coat protein [3]; input ligand: FMN 200 uM): 24.5 nM; apparent KD of MS2 coat protein (MS2 coat protein [3]; [4]): 256 nM; apparent KD of MS2 coat protein (MS2 coat protein [3]; input ligand: none): 278 nM
34 | UUUAGUUGCGGGCAGGAUAUGUAUUAAUAUACAUGAGGAUCACCCAUGUGCGGGUAUAACACCCGACAGAAGGGCCAAUCGCGAC [Laonerce - 5] (puzzle: Same State 2) |  |  | apparent KD of MS2 coat protein (MS2 coat protein [3]; [5]): 28.3 nM; apparent KD of MS2 coat protein (MS2 coat protein [3]; [6]): 302 nM; apparent KD of MS2 coat protein (MS2 coat protein [3]; [7]): 389 nM
35 | UUUGGGUGGCUGGAGGAUAUCCUUGUGGUUACAUGAGGAUCACCCAUGUGCCGCGCGGUGCGCGAGGAGAAGGCUGGCGGCCGUU (puzzle: Same State 2) |  |  | apparent KD of MS2 coat protein (MS2 coat protein [3]; [5]): 26 nM; apparent KD of MS2 coat protein (MS2 coat protein [3]; [6]): 79.5 nM; apparent KD of MS2 coat protein (MS2 coat protein [3]; [7]): 151 nM
36 | UUUGGGUGGCUGGAGGAUAUUCGAGUGGUUACAUGAGGAUCACCCAUGUGUCGCGCGGUACACGAGGAGAAGGCUGGCGGCCGUU (puzzle: Same State 2) |  |  | apparent KD of MS2 coat protein (MS2 coat protein [3]; [6]): 37.7 nM
